Test results taken from patent publication US20190194322A1 (published 2019).
Substitutions are numbered along the chain they refer to. Like-named read-outs stand apart in the source and are kept apart here. One block for each binder: values may come before it.

How the values were obtained:
VSIG3 His-fusion [1] = target: T1, VSIG3 His-fusion (human, UniProt Q5DX21 23-241, biotinylated (in the co-immunoprecipitation of FIG. 2)); assay: SPR (Biacore), antibody captured on protein A/G/L, single-cycle kinetics
T1 chain: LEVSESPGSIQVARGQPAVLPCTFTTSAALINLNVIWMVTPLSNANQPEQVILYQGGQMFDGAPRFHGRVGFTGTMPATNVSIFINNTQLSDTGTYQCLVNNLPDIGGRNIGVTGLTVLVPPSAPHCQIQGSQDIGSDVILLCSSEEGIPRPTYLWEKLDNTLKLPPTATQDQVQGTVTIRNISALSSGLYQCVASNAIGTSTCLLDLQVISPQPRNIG

[2] = target: T2, Recombinant human VSIG3 Fc Chimera; assay: SPR (Biacore, single-cycle kinetics)
T2 chain: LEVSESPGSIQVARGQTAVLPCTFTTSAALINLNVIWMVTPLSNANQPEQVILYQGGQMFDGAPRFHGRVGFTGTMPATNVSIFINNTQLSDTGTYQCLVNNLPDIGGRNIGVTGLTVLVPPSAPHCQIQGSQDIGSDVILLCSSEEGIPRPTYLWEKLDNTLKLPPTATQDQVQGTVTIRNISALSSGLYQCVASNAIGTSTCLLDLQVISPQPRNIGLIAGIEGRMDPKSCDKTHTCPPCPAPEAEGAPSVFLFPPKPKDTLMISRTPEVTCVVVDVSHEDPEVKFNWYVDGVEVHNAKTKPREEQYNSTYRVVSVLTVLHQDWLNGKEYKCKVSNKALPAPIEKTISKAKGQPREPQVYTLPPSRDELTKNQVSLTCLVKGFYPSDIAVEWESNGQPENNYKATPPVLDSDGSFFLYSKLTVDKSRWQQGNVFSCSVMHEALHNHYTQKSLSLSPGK

VSIG3 His-fusion [3] = target: T1, VSIG3 His-fusion; assay: SPR (Biacore), antibody captured on protein A/G/L, single-cycle kinetics
[4] = target: T2, Recombinant human VSIG3 Fc Chimera; assay: SPR (Biacore, single-cycle kinetics)
[5] = target: T2, Recombinant human VSIG3 Fc Chimera; assay: SPR (Biacore, single-cycle kinetics)
[6] = target: T2, Recombinant human VSIG3 Fc Chimera; assay: SPR (Biacore), VSIG3-Fc immobilized, antibody as analyte, single-cycle kinetics
[7] = target: T2, Recombinant human VSIG3 Fc Chimera; assay: SPR (Biacore, single-cycle kinetics)

B1: mouse anti-human VSIG3 monoclonal antibody from clone #774226 (antibody, V domains shown)
VH: DVQLQESGPGLVKPSQSLSLICTVTGYSITSDYAWNWIRQFPGNKLEWMGYISYSGYTTYNPSLKSRISITRDTSKNQFFLQLNSVTTEDTATYYCAISGGSWFAYWGQGTLVTVSA
VL: DIQMTQSPASLSASVGETVNITCRTSENINSYLAWYQQKQGKSPQLLVYNAKTLAEGVPSRFSGSGSGTQFSLKINSLQPEDFGSYYCQHHYGTPPTFGGGTKLEIKR
- Kd (VSIG3 His-fusion [1]): 0.042 µM
- Kd [2]: 0.065 µM

B2: mouse anti-human VSIG3 monoclonal antibody from clone #774221 (antibody, V domains shown)
VH: B1 VH with I21T, T58A, T59I, Q78H, I98R
VL: B1 VL with N20T, T25A
- Kd (VSIG3 His-fusion [1]): 0.025 µM
- Kd [2]: 0.021 µM

B3: mouse anti-human VSIG3 monoclonal antibody from clone #774213 (antibody, V domains shown)
VH: DVQLVESGGGLVQPGGSRKLSCAASGFTFSSFGMHWVRQAPEKGLEWVAYISSGSTTIYYADTVKGRFTISRDNPKNTLFLQMTSLRSEDTAMYYCTRGSYYRYDLYYAMDYWGQGTSVTVSS
VL: DIQMTQSPSSLSASLGGKVTITCKASQDIHKYVAWYQHKPGKGPRLLIHYTSTLQPGIPSRFSGSGSGSDYSFSISNLEPADIASYYCLQYDNLLFTFGGGTKLEIKR
- Kd (VSIG3 His-fusion [3]): 0.019 µM
- Kd [4]: 0.0092 µM

B4: mouse anti-human VSIG3 monoclonal antibody from clone #973401 (antibody, V domains shown)
VH: QVQLQQSAAELARPGASVKMSCKASGYTFATYTIHWVKQRPGQGLEWIGYINPSSGYTEYNQKFKDKTTLTADKSSSTAYMQLSSLTSEDSAVYYCARREVYGSGSMDYWGQGTSVTVSS
VL: QIVLTQSPALMSASPGEKVTMTCSASSSVSFMYWYHQKPRSSPKPWIYLTSNLASGVPARFSGSGSGTSYSLTISSMEAEDAATYYCQQWSSNPLTFGAGTKLELKR
- Kd [5]: 0.0022 µM

Other lines, results leading:

- Kd [6]: 0.0022 µM
B5: mouse anti-human VSIG3 monoclonal antibody from clone #973428 (antibody, V domains shown)
VH: EVQLVESGGDLVKPGGSLKLSCAASGFTFNSYGMSWVRQTPDKRLEWVAIISSGGSYTYYPDSVKGRFTISRDNAKNTLYLQMSSLKSEDTAMYYCARLSYYYGSSPYAMDYWGQGTSVTISS
VL: DIVLTQSPASLAVSLGQRATISCRASKSVSTSGYSYMHWYQQKPGQSPKLLIYLASNLESGVPARCSGSGSGTDFTLNIHPVEEEDAATYYCQHSRELPYTFGGGTKLEIKR

- Kd [7]: 0.0015 µM
B6: mouse anti-human VSIG3 monoclonal antibody from clone #973422 (antibody, V domains shown)
VH: EVKLVESGGGLVQPGGSLKLSCAASGFTFSSYSMSWVRQTPEKRLEWVAYISNGGGSTYYPDTVKGRFTISRDNAKNTLYLQMSSLKSEDTAMYYCARHGDGYYPWFAYWGQGTLVTVSA
VL: QIVLSQSPAILSASPGEKVTMTCRASSSVSYIHWYQQKPGSSPKPWIYATSNLASGVPARFSGSGSGTSYSLTISRVEAEDAATYYCQQWSSNPFTFASGTKLEIKR
